# From the supplement of paper PMC12855868
# B1: library; numbered along this chain (parent)
# chain: MAAAGGARLLRAASAVLGGPAGRWLHHAGSRAGSSGLLRNRGPGGSAEASRSLSVSARARSSSEDKITVHFINRDGETLTTKGKVGDSLLDVVVENNLDIDGFGACEGTLACSTCHLIFEDHIYEKLDAITDEENDMLDLAYGLTDRSRLGCQICLTKSMDNMTVRVPETVADARQSIDVGKTS
# Variants of: B1
# Assay: scaled log2 fold change in cell abundance, elesclomol vs control (0 = silent mean, 1 = nonsense mean) (scaled log2 ratio); higher = higher viability under elesclomol (loss of FDX1 cuproptosis function)
# Conditions: glucose 10 mM
# [1] = with HEK293T FDX1 KO, elesclomol 40 nM, 11 days
# [2] = with ABC1 FDX1 KO, elesclomol 5 nM, 14 days
# 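Also: variant abundance is its share of total variant reads in each endpoint sample, from next-generation sequencing of the integrated ORF PCR-amplified out of genomic DNA.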
Variant,scaled log2 fold change [1],scaled log2 fold change [2]
A4P,-0.59,
H26I,0.477,
H26V,0.418,
A21W,0.402,
L9A,0.241,
I178M,0.0752,-0.147
I178Y,0.141,-1.49
I178D,1.21,0.156
I178P,0.399,-0.0627
I178S,0.0683,0.197
I178G,,-0.381
I178Q,0.28,-0.0255
I178V,0.0591,-0.343
I178R,-0.46,0.265
I178K,1.24,0.421
I178A,0.476,-0.325
I178W,-0.636,0.246
I178T,-0.626,0.00283
I178C,-0.695,0.576
I178F,0.801,-0.214
I178N,0.216,0.142
I178E,-0.114,0.2
I178H,0.244,-0.366
I178L,-0.187,0.552
K182R,0.0141,-0.345

Variant,scaled log2 fold change [1],scaled log2 fold change [2]
K182G,,0.289
K182V,0.182,-0.251
K182L,0.171,-0.0698
K182W,0.909,0.0276
K182H,-0.354,-0.181
K182N,0.75,0.127
K182Q,-0.145,0.399
K182F,-0.11,0.103
K182A,-0.691,0.0976
K182D,,0.0891
K182C,-0.334,-0.0381
K182T,-0.0291,0.134
K182Y,-0.398,0.0751
K182S,-0.584,0.0077
K182M,-0.0296,-0.000782
K182E,-1.19,-0.363
K182I,0.677,0.114
K182P,,0.201
G29H,-0.53,
G29N,1.01,
G29Q,0.00954,
G29L,0.376,
P20R,0.465,
P20V,0.328,
A174P,-0.277,-0.155

Variant,scaled log2 fold change [1],scaled log2 fold change [2]
A174E,0.0347,-0.219
A174Q,,-0.051
A174V,-0.188,0.037
A174G,0.643,-0.324
A174N,,-0.0564
A174F,-1.07,-1.02
A174S,-0.662,-0.111
A174Y,0.358,0.11
A174W,-0.353,0.23
A174T,-0.546,0.187
A174D,0.361,-0.995
A174R,0.908,-0.108
A174H,-0.0112,0.267
A174I,0.249,0.163
A174K,0.0836,-0.0242
A174M,-0.275,0.0375
A174C,,-0.397
A174L,0.483,0.255
V55A,-0.0113,
G22D,0.368,
G22S,1.21,
T183K,-0.436,-0.157
T183W,0.214,-0.19
T183R,-0.367,0.102
T183P,,0.166

Variant,scaled log2 fold change [1],scaled log2 fold change [2]
T183C,-0.686,0.0469
T183N,,-0.0614
T183G,-1.07,0.353
T183E,-0.187,-1.02
T183L,-0.253,-0.0402
T183A,-0.711,-0.44
T183Y,0.0186,-0.296
T183D,-0.222,0.0532
T183I,-0.426,0.0224
T183Q,,-0.0766
T183S,-0.869,0.172
T183H,-0.49,-0.16
T183V,-0.191,0.00691
T183F,-0.199,0.0658
T183M,-0.119,-0.197
D179S,0.929,0.558
D179T,0.00101,0.106
D179Q,-0.984,0.442
D179R,-0.221,0.498
D179A,-0.278,-0.393
D179H,,0.224
D179V,0.172,-0.0481
D179Y,-0.339,0.0967
D179L,1.12,0.0184
D179I,0.926,-0.885

Variant,scaled log2 fold change [1],scaled log2 fold change [2]
D179W,,0.235
D179C,-0.227,0.369
D179P,0.0267,-0.26
D179M,-0.494,0.0418
D179F,0.995,-0.352
D179K,-0.385,0.53
D179E,0.0611,-0.000144
D179G,0.304,0.226
D179N,,0.063
W24S,-0.637,
W24D,-0.665,
W24Y,0.0942,
S50F,-0.396,
S50V,-0.0587,
S177T,-0.492,-0.0709
S177C,,-0.309
S177V,0.49,-0.287
S177R,-0.798,-0.0538
S177E,-0.019,-0.0815
S177K,-0.228,0.281
S177A,,-0.0907
S177H,-0.562,0.139
S177Q,-0.314,0.143
S177P,-0.486,-0.213
S177W,0.264,0.0273

Variant,scaled log2 fold change [1],scaled log2 fold change [2]
S177N,0.0839,0.00267
S177M,0.0434,-0.566
S177F,-0.0862,-0.0241
S177D,-0.675,-1.44
S177G,0.0748,-0.315
S177Y,0.126,-1.05
S177L,-0.529,-0.34
S177I,0.665,-0.08
D173T,,-0.0187
D173Y,-0.0391,0.241
D173R,0.613,0.198
D173V,-0.196,0.418
D173W,,-0.0293
D173S,-0.827,0.248
R31L,-0.385,
R31D,0.39,
S14N,0.029,
V16H,0.416,
V180Q,-0.00162,0.0492
V180C,0.216,0.235
V180R,-0.285,-0.02
V180G,-0.341,0.144
V180M,0.491,0.313
V180Y,0.873,-0.084
V180T,-0.33,0.143

Variant,scaled log2 fold change [1],scaled log2 fold change [2]
V180D,,0.293
V180L,-0.104,-0.0572
V180F,0.0689,0.0635
V180I,,0.213
V180P,0.824,-1.19
V180W,0.322,-0.111
V180A,2.72,-0.00321
V180K,0.164,-0.341
V180H,1.19,-0.37
V180S,-1.45,-0.754
V180N,-0.0838,0.00503
V180E,-0.141,-0.352
S184D,0.845,-0.159
S184A,0.908,0.168
S184V,0.648,0.362
S184P,0.83,0.326
S184L,0.57,-0.241
S184H,-0.0277,0.0751
S184M,0.661,0.00413
S184R,-0.427,0.0521
S184I,-0.259,0.126
S184Y,0.879,-0.125
S184N,0.0759,0.136
S184T,-0.512,-0.0663
S184F,-0.432,0.3

Variant,scaled log2 fold change [1],scaled log2 fold change [2]
S184W,0.713,0.0507
S184G,-0.25,0.207
S184C,,0.145
S184K,0.0933,-0.0652
S184Q,-0.0365,-0.0164
S184E,1.03,-0.0286
S30W,-0.103,
S30P,-0.513,
L25F,0.845,
A15R,-0.519,
R175S,0.224,0.343
R175L,,0.518
R175Q,-0.894,-1.39
R175H,-0.908,0.468
R175C,0.45,-0.0756
R175P,0.128,-0.117
R175Y,-0.118,0.225
R175M,0.0945,-0.223
R175E,0.643,0.417
R175V,-0.0442,0.472
R175N,0.495,0.0623
R175D,1.25,0.148
R175G,,0.394
R175W,-0.0023,0.307
R175T,0.313,0.48

Variant,scaled log2 fold change [1],scaled log2 fold change [2]
R175I,0.157,-0.385
R175F,0.0272,0.208
R175A,-0.138,0.455
R175K,-0.161,0.138
G181F,0.167,0.316
G181P,-0.548,-0.164
G181V,,-0.396
G181C,-0.501,-0.0449
G181H,0.112,-0.157
G181Q,-0.21,-0.419
G181W,0.364,0.226
G181I,0.0446,0.268
G181E,-0.4,-0.223
G181L,,0.185
G181M,0.389,-1.35
G181A,-0.352,-0.623
G181T,-0.186,0.225
G181Y,-0.568,0.093
G181R,0.814,-0.0624
G181K,-0.659,0.227
G181D,-0.438,0.217
G181S,0.902,0.113
G181N,,0.125
R51I,0.315,
Q176W,0.328,-0.225

Variant,scaled log2 fold change [1],scaled log2 fold change [2]
Q176R,0.492,-0.155
Q176T,-0.279,-0.0483
Q176V,-0.626,0.192
Q176I,-0.471,0.324
Q176P,0.159,0.375
Q176A,0.8,0.239
Q176Y,1.3,0.0438
Q176K,0.463,0.426
Q176M,,0.291
Q176E,-0.685,0.157
Q176D,-0.177,-0.118
Q176F,0.182,-0.29
Q176C,-0.158,0.128
Q176H,0.909,-0.0199
Q176G,-0.11,-0.184
Q176N,1.21,-0.0287
Q176S,-0.0154,-0.0172
Q176L,-0.65,-0.0736
G33D,0.213,
N40H,-0.707,
N40A,1.14,
N40G,-0.0433,
L37N,-0.668,
L37I,1.2,
L37A,0.765,
